Data published in the supplement of paper PMC9112550, “Optimization of the antimicrobial peptide Bac7 by deep mutational scanning” (BMC Biology, 2022).

Test system: Escherichia coli TOP10
Assay: shrunken log2 fold change of peptide-encoding DNA abundance (4.5 h post-induction vs induction); higher = less antimicrobial activity (less host growth inhibition)
Settings: time post-induction: 4.5 h; library: site-saturation at positions 5, 18, 19, 20
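Also: peptides expressed intracellularly from a pBAD plasmid library in pooled LB shake-flask culture, induced with 0.3% L-arabinose, DNA abundance read by NGS, three biological replicates, DESeq2 with apeglm shrinkage.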

| Sequence | shrunken log2 fold change |
| --- | --- |
| RRIRERPPRLPRPRPRPFSYPRP | -0.0589 |
| RRIRERPPRLPRPRPRPFTCPRP | -0.00783 |
| RRIRERPPRLPRPRPRPFTLPRP | -0.21 |
| RRIRERPPRLPRPRPRPFTWPRP | -0.737 |
| RRIRERPPRLPRPRPRPFWIPRP | -0.165 |
| RRIRERPPRLPRPRPRPFWYPRP | -0.000951 |
| RRIRERPPRLPRPRPRPGALPRP | 0.122 |
| RRIRERPPRLPRPRPRPGAWPRP | -0.0396 |
| RRIRERPPRLPRPRPRPGCHPRP | -0.0878 |
| RRIRERPPRLPRPRPRPGDSPRP | -1.02 |
| RRIRERPPRLPRPRPRPGDWPRP | 0.212 |
| RRIRERPPRLPRPRPRPGFFPRP | -0.191 |
| RRIRERPPRLPRPRPRPGGAPRP | 0.276 |
| RRIRERPPRLPRPRPRPGGTPRP | -0.215 |
| RRIRERPPRLPRPRPRPGKAPRP | -0.0498 |
| RRIRERPPRLPRPRPRPGMCPRP | 0.248 |
| RRIRERPPRLPRPRPRPGMFPRP | -0.837 |
| RRIRERPPRLPRPRPRPGMIPRP | -0.439 |
| RRIRERPPRLPRPRPRPGMYPRP | -0.0383 |
| RRIRERPPRLPRPRPRPGNFPRP | -0.0564 |
| RRIRERPPRLPRPRPRPGPEPRP | 0.129 |
| RRIRERPPRLPRPRPRPGPGPRP | 0.268 |
| RRIRERPPRLPRPRPRPGPNPRP | -0.106 |
| RRIRERPPRLPRPRPRPGPRPRP | 0.537 |
| RRIRERPPRLPRPRPRPGPWPRP | 0.186 |

| Sequence | shrunken log2 fold change |
| --- | --- |
| RRIRERPPRLPRPRPRPGRFPRP | 0.0216 |
| RRIRERPPRLPRPRPRPGSPPRP | -0.0668 |
| RRIRERPPRLPRPRPRPGTAPRP | -0.0769 |
| RRIRERPPRLPRPRPRPGTFPRP | -0.378 |
| RRIRERPPRLPRPRPRPGTTPRP | -0.433 |
| RRIRERPPRLPRPRPRPGTVPRP | -0.973 |
| RRIRERPPRLPRPRPRPGVLPRP | -0.177 |
| RRIRERPPRLPRPRPRPGVPPRP | 0.149 |
| RRIRERPPRLPRPRPRPGVVPRP | -0.0414 |
| RRIRERPPRLPRPRPRPGWAPRP | 0.487 |
| RRIRERPPRLPRPRPRPGWKPRP | 0.015 |
| RRIRERPPRLPRPRPRPGWVPRP | 0.381 |
| RRIRERPPRLPRPRPRPGYMPRP | -0.172 |
| RRIRERPPRLPRPRPRPHADPRP | 0.0454 |
| RRIRERPPRLPRPRPRPHAFPRP | -0.0188 |
| RRIRERPPRLPRPRPRPHCSPRP | -0.279 |
| RRIRERPPRLPRPRPRPHDYPRP | 0.0456 |
| RRIRERPPRLPRPRPRPHFTPRP | -0.246 |
| RRIRERPPRLPRPRPRPHHTPRP | -0.268 |
| RRIRERPPRLPRPRPRPHINPRP | -0.713 |
| RRIRERPPRLPRPRPRPHKQPRP | -0.0572 |
| RRIRERPPRLPRPRPRPHKYPRP | -0.902 |
| RRIRERPPRLPRPRPRPHMAPRP | -0.0803 |
| RRIRERPPRLPRPRPRPHMTPRP | 0.0464 |
| RRIRERPPRLPRPRPRPHNGPRP | 0.0109 |

| Sequence | shrunken log2 fold change |
| --- | --- |
| RRIRERPPRLPRPRPRPHPFPRP | -0.235 |
| RRIRERPPRLPRPRPRPHPMPRP | -0.334 |
| RRIRERPPRLPRPRPRPHWTPRP | -0.0453 |
| RRIRERPPRLPRPRPRPIACPRP | -0.23 |
| RRIRERPPRLPRPRPRPIAFPRP | 0.0152 |
| RRIRERPPRLPRPRPRPIDMPRP | -0.123 |
| RRIRERPPRLPRPRPRPIFDPRP | -0.349 |
| RRIRERPPRLPRPRPRPIFIPRP | -0.508 |
| RRIRERPPRLPRPRPRPIGDPRP | -0.942 |
| RRIRERPPRLPRPRPRPIGKPRP | 0.133 |
| RRIRERPPRLPRPRPRPIGTPRP | -0.976 |
| RRIRERPPRLPRPRPRPIIWPRP | -0.204 |
| RRIRERPPRLPRPRPRPIKGPRP | -0.0123 |
| RRIRERPPRLPRPRPRPIKLPRP | -0.481 |
| RRIRERPPRLPRPRPRPILEPRP | -0.0533 |
| RRIRERPPRLPRPRPRPILQPRP | -0.518 |
| RRIRERPPRLPRPRPRPIMNPRP | -1.02 |
| RRIRERPPRLPRPRPRPIQEPRP | -0.0167 |
| RRIRERPPRLPRPRPRPIQIPRP | -0.103 |
| RRIRERPPRLPRPRPRPIREPRP | 0.0256 |
| RRIRERPPRLPRPRPRPISFPRP | -0.441 |
| RRIRERPPRLPRPRPRPITLPRP | 0.0653 |
| RRIRERPPRLPRPRPRPITTPRP | -0.03 |
| RRIRERPPRLPRPRPRPIVWPRP | 0.0693 |
| RRIRERPPRLPRPRPRPIWCPRP | 0.000213 |
